# Source: patent US7666414B2, “Methods for treating prostate cancer using modified antibodies to prostate-specific membrane antigen” (Cornell Research Foundation, Inc., priority 2001, dated 2010)
# pEC50, pIC50: −log10 of the molar value. Read-outs that look alike come from different tables or passages of the source.
# Assays:
# LNCaP cells = assay: In vitro pharmacodynamics, LNCaP proliferation assay; type: cell-based, human; details: 6-day exposure in tissue culture
# Protocol: At the end of that period the drug containing media was removed and replaced with drug free media until a total of 144 hours elapsed from the start of the experiment. The resulting effect of drug exposure on proliferation was then determined.
# LNCaP = assay: Binding to LNCaP by FACS; parameters: species or system human
# CD-1 mice = system: CD-1 mice
# From the text: Use of both mice and cynomolgus monkeys for nonclinical testing allowed comparison of exposure and toxicity across species on the basis of body surface area (mg/m^2), and thus aided in selecting the SSD for the proposed Phase 1 clinical trial.
# [1] = system: PSMA-positive 22RV1 xenografts; assay: Efficacy in castrate or intact scid mice bearing androgen-independent 22RV1 xenograft; type: in vivo, C.B-17 scid mice; details: 12.93 mg/kg
# Protocol: Prostate tumors can be broadly classified as either androgen-dependent or androgen-independent. […] The 22RV1 cell line was originally developed as androgen-independent and can be grown as a xenograft in C.B-17 scid mice that have been left either intact or castrated. […] C.B-17 scid mice bearing CWR22 xenografts approximately 200 mm^3 in size received IV injections (200 μL constant volume) of the test articles according to the dosage and schedule shown in the Table 24.
# [2] = system: metastatic androgen-independent prostate cancer; assay: Phase 1 dose-escalating trial of DM1 conjugated deJ591; type: in vivo, human
# Protocol: Based upon emerging clinical safety and PK, repeat dosing at four week intervals was subsequently permitted.
# DLT is defined as the occurrence of one or more of the following:
# • Grade 4 thrombocytopenia (platelet count <10,000/mm3) • Requirement for platelet transfusion and/or other methods to increase platelet count • Febrile neutropenia (ANC <1000/mm^3 concurrent with a temperature >38.5° C.). (Per the Infection/Febrile Neutropenia subsection of the NCI CTC version 2.0, febrile neutropenia is, by definition, a >Grade 3 toxicity) • Grade 4 neutropenia without fever of >7 days duration • Grade 3 neutropenia requiring granulocyte colony-stimulating factor (G-CSF) administration • Grade 4 anemia (hemoglobin <6.5 g/dL) • Grade 3 anemia (hemoglobin 6.5-<8.0 g/dL) in a subject receiving EpogenÒNon-hematologic • Any Grade 3 non-hematologic toxicity considered by the investigator to be possibly related to study drug MTD is defined as the highest dose level with an observed incidence of DLT in no more than 1 out of 6 subjects.
# There will be a 4 week (28 days±2 days) interval between dose administrations. […] Subjects will receive the same dose administered on day 1 (Visit 1) of their first infusion.
# The starting dose is 18 mg/m2. Subjects will be followed for 3 weeks after the first dose to determine dose escalation. Dose escalation will continue until DLT and MTD are determined. Two phases of dose escalation will be used. In the first phase, one subject will be enrolled at each dose level. In the second phase, three subjects will be enrolled at each dose level. The planned dose increments are 80%, 60%, 40%, 30%, 30%, 30%, 30%, 30% and 30% above the previous dose, with a total of ten dose levels planned. All dose increments will be adjusted to 30% above the previous dose if DLT or two or more occurrences of non dose-limiting grade 2 or greater drug-related toxicity (NDLT) are observed in subjects treated at any of the first three dose levels. Non dose-limiting grade 2 or greater toxicity includes grade 2 or 3 hematologic toxicity and grade 2 non-hematologic toxicity. Drug-related toxicity is toxicity considered by the investigator to be related to study drug. In the first phase, one subject will be enrolled at the lowest dose level and observed for 3 weeks to ensure that there are no significant adverse events. If no DLT or NDLT is observed during the 3 week observation period, dose escalation will continue and a new subject will be enrolled at the next predefined dose level. Single subjects will continue to be enrolled and observed at sequentially increasing dose levels until one subject experiences a DLT or a NDLT. If DLT is observed in a single subject at any dose level in the first phase, the second phase will begin, where 3 subjects per dose level will be enrolled. The dose assignment for the first subject enrolled in the second phase will be one dose level lower than the dose level at which DLT is observed. If NDLT is observed in the subject treated at any of the first three dose levels, dose escalation will stop and two more subjects will be enrolled at the current dose level. Subsequent dose escalation and enrollment will be determined by the number and grade of toxicities observed in these two additional subjects. If DLT or NDLT is not observed, the first phase will continue. Dose escalation will proceed to the next predefined dose level, with one subject enrolled at that dose level. If DLT is observed in one subject, three subjects will be enrolled at the current dose level and the second phase will begin. The dose increments for subsequent dose escalations will be 30% for the remainder of the study. If DLT is observed in both subjects, dose escalation will stop and three subjects will be enrolled at the previous dose level, marking the beginning of the second phase. The previous dose level will be evaluated as potential MTD. No further dose escalation will occur. […]
# PSMA-negative cells = details: read-out: Non-specific in vitro cytotoxicity towards PSMA-negative cells, IC50
# [3] = system: micronucleated polychromatic erythrocytes; details: 30, 48, and 90 mg/m^2
# [4] = MLN2704 300 mg/m^2 (100 mg/kg), single IV, CD-1 mice
substance,measurement,setting,value
"deJ591-DM1: deJ591 conjugated via SPP disulfide linker to the maytansinoid DM1, DM1/antibody ratio about 3.5",IC50 on PSMA-positive LNCaP cells,LNCaP cells,0.21 µg/mL
same,pEC50,LNCaP; listed as 1552-60S,8.10
same,pEC50,LNCaP; listed as N067020302,8.16
same,Degree of Toxicity and Major Target Organs,CD-1 mice; 30 mg/m^2 (10 mg/kg),Mild toxicity to testes.
same,Degree of Toxicity and Major Target Organs,CD-1 mice; 48 mg/m^2 (16 mg/kg),Mild to moderate toxicity to reproductive
same,Degree of Toxicity and Major Target Organs,CD-1 mice; 90 mg/m^2 (30 mg/kg),"Mild to moderate toxicity to reproductive,"
same,Degree of Toxicity and Major Target Organs,CD-1 mice; 300 mg/m^2 (100 mg/kg),"Moderate to severe toxicity to reproductive,"
same,mortality,CD-1 mice; 480 mg/m^2 (160 mg/kg),100% mortality attributed to severe
same,Degree of Toxicity and Major Target Organs,"CD-1 mice; MLN2704 30 mg/m^2 (10 mg/kg), single IV, CD-1 mice",Mild toxicity to testes.
same,Degree of Toxicity and Major Target Organs,"CD-1 mice; MLN2704 48 mg/m^2 (16 mg/kg), single IV, CD-1 mice",Mild to moderate toxicity to
same,elevated AST and ALT values,"CD-1 mice; MLN2704 90 mg/m^2 (30 mg/kg), single IV, CD-1 mice",mitosis/necrosis of liver; slightly
same,elevated AST and ALT values,"CD-1 mice; MLN2704 180 mg/m^2 (60 mg/kg), single IV, CD-1 mice",mitosis/necrosis of liver; moderately
same,elevated AST and ALT values,CD-1 mice; [4],mitosis/necrosis of liver; markedly
same,mortality,CD-1 mice; [4],30% mortality attributed to severe
same,Degree of Toxicity and Major Target Organs,"CD-1 mice; MLN2704 300 mg/m^2 (100 mg/kg), single IV, CD-1 mice, survivors",toxicity. Moderate to severe toxicity to
same,mortality,"CD-1 mice; MLN2704 480 mg/m^2 (160 mg/kg), single IV, CD-1 mice",100% mortality attributed to severe
same,Mouse LD10 (female),CD-1 mice; calculated,95 mg/kg
same,"Mouse LD10 (female), DM1-Equivalents received",CD-1 mice; calculated,5.13 mg/m^2
same,Mouse LD10 (male),CD-1 mice; calculated,96 mg/kg
same,"Mouse LD10 (male), DM1-Equivalents received",CD-1 mice; calculated,5.18 mg/m^2
same,lower testes weights,CD-1 mice; lowest tested dosage 30 mg/m^2,10%
same,Mouse LD100,"CD-1 mice; mouse, in vivo",160 mg/kg
same,Mouse MTD,"CD-1 mice; mouse, in vivo",60 mg/kg
same,"Mouse STD, DM1-Equivalents received","CD-1 mice; mouse, in vivo",5.40 mg/m^2
same,LD100,"CD-1 mice; single IV, CD-1 mice",160 mg/kg
same,MTD,"CD-1 mice; single IV, CD-1 mice",60 mg/kg
same,LD10 (females),"CD-1 mice; single IV, CD-1 mice, females, calculated",95 mg/kg
same,LD10 (males),"CD-1 mice; single IV, CD-1 mice, males, calculated",96 mg/kg
same,Tumor Growth Delay,"[1]; Castrate Mice, q3dX5",26.3 days
same,Tumor Growth Delay,"[1]; Intact Mice, q3dX5",13.1 days
same,Tumor Growth Delay,"[1]; Intact Mice, q7dX5",7.8 days
same,tolerability,[2]; 18 to 343 mg/m^2,well-tolerated in the majority of patients
same,MTD,"[2]; 23 patients, 18 to 343 mg/m^2",≥ 343 mg/m^2
same,DLT,[2]; highest dose level 343 mg/m^2,"Only one DLT, an uncomplicated febrile neutropenia"
same,"PK of antibody related analytes (J591-DM1, Total J591 and free J591)",[2]; in vivo,typical of monoclonal antibodies
same,Plasma levels of DM1-SH,[2]; in vivo,detectable
same,anti-antibodies,[2]; in vivo,"No anti-antibodies against DM1 conjugated deJ591, deJ591 or DM1 were detected"
same,disease response,"[2]; one patient, 264 mg/m^2",PR by RECIST criteria
same,durable decrease in PSA,"[2]; one patient, 264 mg/m^2",70%
same,sustained PSA decline,"[2]; one patient, 343 mg/m^2",> 50%
same,pIC50,PSMA-negative cells; listed as 1552-60S,7.87
same,pIC50,PSMA-negative cells; listed as N067020302,7.77
same,increases in micronucleated polychromatic erythrocytes,[3],positive
